These results are taken from the supplement of paper PMC5998384.

The test system of data set [1] is HeLa Kyoto. The data set can be described thus: solubility change mitosis vs G1/S (difference of NP-40 vs SDS log2 ratios) (log2 ratio difference); higher = more soluble in mitosis.
Data set [2] relates to HeLa Kyoto. The data set can be described thus: solubility in G1/S (NP-40 vs SDS abundance) (log2 ratio); higher = more soluble. The conditions noted are these: cell cycle stage: G1/S.
The test system of data set [3] is HeLa Kyoto. The data set is described as follows: thermal stability score vs G1/S (z-score of summed log2 fold changes over temperatures); higher = more thermally stable than in G1/S.
Where [4] appears, read: cell cycle stage: early G1 (4.5 h after nocodazole release).
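Throughout, for solubility change mitosis vs G1/S (difference of NP-40 vs SDS log2 ratios): synchronized HeLa Kyoto cells (double thymidine block for G1/S, nocodazole release for mitosis), protein amounts in NP-40 versus SDS lysates quantified by mass spectrometry, three biological replicates.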
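Throughout, for solubility in G1/S (NP-40 vs SDS abundance): HeLa Kyoto cells arrested at G1/S by double thymidine block, proteins quantified by TMT10plex mass spectrometry in mild NP-40 versus SDS extracts, three biological replicates.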
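Throughout, for thermal stability score vs G1/S (z-score of summed log2 fold changes over temperatures): synchronized HeLa Kyoto cells, proteins quantified by TMT10plex mass spectrometry, three biological replicates, mitosis taken 0.5 h after nocodazole release, G1/S directly after double thymidine block.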

In the case of “MDTTAAAALPAFVALLLLSPWPLLGSAQGQFSAGGCTFDDGPGACDYHQDLYDDFEWVHVSAQEPHYLPPEMPQGSYMIVDSSDHDPGEKARLQLPTMKENDTHCIDFSYLLYSQKGLNPGTLNILVRVNKGPLANPIWNVTGFTGRDWLRAELAVSTFWPNEYQVIFEAEVSGGRSGYIAIDDIQVLSYPCDKSPHFLRLGDVEVNAGQNATFQCIATGRDAVHNKLWLQRRNGEDIPVAQTKNINHRRFAASFRLQEVTKTDQDLYRCVTQSERGSGVSNFAQLIVREPPRPIAPPQLLGVGPTYLLIQLNANSIIGDGPIILKEVEYRMTSGSWTETHAVNAPTYKLWHLDPDTEYEIRVLLTRPGEGGTGLPGPPLITRTKCAEPMRTPKTLKIAEIQARRIAVDWESLGYNITRCHTFNVTICYHYFRGHNESKADCLDMDPKAPQHVVNHLPPYTNVSLKMILTNPEGRKESEETIIQTDEDVPGPVPVKSLQGTSFENKIFLNWKEPLDPNGIITQYEISYSSIRSFDPAVPVAGPPQTVSNLWNSTHHVFMHLHPGTTYQFFIRASTVKGFGPATAINVTTNISAPTLPDYEGVDASLNETATTITVLLRPAQAKGAPISAYQIVVEELHPHRTKREAGAMECYQVPVTYQNAMSGGAPYYFAAELPPGNLPEPAPFTVGDNRTYQGFWNPPLAPRKGYNIYFQAMSSVEKETKTQCVRIATKAATEEPEVIPDPAKQTDRVVKIAGISAGILVFILLLLVVILIVKKSKLAKKRKDAMGNTRQEMTHMVNAMDRSYADQSTLHAEDPLSITFMDQHNFSPRYENHSATAESSRLLDVPRYLCEGTESPYQTGQLHPAIRVADLLQHINLMKTSDSYGFKEEYESFFEGQSASWDVAKKDQNRAKNRYGNIIAYDHSRVILQPVEDDPSSDYINANYIDGYQRPSHYIATQGPVHETVYDFWRMIWQEQSACIVMVTNLVEVGRVKCYKYWPDDTEVYGDFKVTCVEMEPLAEYVVRTFTLERRGYNEIREVKQFHFTGWPDHGVPYHATGLLSFIRRVKLSNPPSAGPIVVHCSAGAGRTGCYIVIDIMLDMAEREGVVDIYNCVKALRSRRINMVQTEEQYIFIHDAILEACLCGETAIPVCEFKAAYFDMIRIDSQTNSSHLKDEFQTLNSVTPRLQAEDCSIACLPRNHDKNRFMDMLPPDRCLPFLITIDGESSNYINAALMDSYRQPAAFIVTQYPLPNTVKDFWRLVYDYGCTSIVMLNEVDLSQGCPQYWPEEGMLRYGPIQVECMSCSMDCDVINRIFRICNLTRPQEGYLMVQQFQYLGWASHREVPGSKRSFLKLILQVEKWQEECEEGEGRTIIHCLNGGGRSGMFCAIGIVVEMVKRQNVVDVFHAVKTLRNSKPNMVEAPEQYRFCYDVALEYLESS [PTPRK]”, in the data set with HeLa Kyoto [1], the “solubility change mitosis (log2)” value was -0.0752. The “solubility in G1/S (log2)” value in the data set with HeLa Kyoto [2] amounted to 0.0167. In addition, the results for the thermal stability score with HeLa Kyoto [3] (setting [4]) and in the data set on HeLa Kyoto [3] (cell cycle stage: mitosis) were 1.97 and 1.47, respectively.
The like results for “MDWQPDEQGLQQVLQLLKDSQSPNTATQRIVQDKLKQLNQFPDFNNYLIFVLTRLKSEDEPTRSLSGLILKNNVKAHYQSFPPPVADFIKQECLNNIGDASSLIRATIGILITTIASKGELQMWPELLPQLCNLLNSEDYNTCEGAFGALQKICEDSSELLDSDALNRPLNIMIPKFLQFFKHCSPKIRSHAIACVNQFIMDRAQALMDNIDTFIEHLFALAVDDDPEVRKNVCRALVMLLEVRIDRLIPHMHSIIQYMLQRTQDHDENVALEACEFWLTLAEQPICKEVLASHLVQLIPILVNGMKYSEIDIILLKGDVEEDEAVPDSEQDIKPRFHKSRTVTLPHEAERPDGSEDAEDDDDDDALSDWNLRKCSAAALDVLANVFREELLPHLLPLLKGLLFHPEWVVKESGILVLGAIAEGCMQGMVPYLPELIPHLIQCLSDKKALVRSIACWTLSRYAHWVVSQPPDMHLKPLMTELLKRILDGNKRVQEAACSAFATLEEEACTELVPYLSYILDTLVFAFGKYQHKNLLILYDAIGTLADSVGHHLNQPEYIQKLMPPLIQKWNELKDEDKDLFPLLECLSSVATALQSGFLPYCEPVYQRCVTLVQKTLAQAMMYTQHPEQYEAPDKDFMIVALDLLSGLAEGLGGHVEQLVARSNIMTLLFQCMQDSMPEVRQSSFALLGDLTKACFIHVKPCIAEFMPILGTNLNPEFISVCNNATWAIGEICMQMGAEMQPYVQMVLNNLVEIINRPNTPKTLLENTGRLTSPSAIPAITIGRLGYVCPQEVAPMLQQFIRPWCTSLRNIRDNEEKDSAFRGICMMIGVNPGGVVQDFIFFCDAVASWVSPKDDLRDMFYKILHGFKDQVGEDNWQQFSEQFPPLLKERLAAFYGV [TNPO2]” were, in that order, -0.263, 0.0053, -0.161 and 0.756.
For “MECPVMETGSLFTSGIKRHLKDKRISKTTKLNVSLASKIKTKILNNSSIFKISLKHNNRALAQALSREKENSRRITTEKMLLQKEVEKLNFENTFLRLKLNNLNKKLIDIEALMNNNLITAIEMSSLSEFHQSSFLLSASKKKRISKQCKLMRLPFARVPLTSNDDEDEDKEKMQCDNNIKSKTLPDIPSSGSTTQPLSTQDNSEVLFLKENNQNVYGLDDSEHISSIVDVPPRESHSHSDQSSKTSLMSEMRNAQSIGRRWEKPSPSNVTERKKRGSSWESNNLSADTPCATVLDKQHISSPELNCNNEINGHTNETNTEMQRNKQDLPGLSSESAREPNAECMNQIEDNDDFQLQKTVYDADMDLTASEVSKIVTVSTGIKKKSNKKTNEHGMKTFRKVKDSSSEKKRERSKRQFKNSSDVDIGEKIENRTERSDVLDGKRGAEDPGFIFNNEQLAQMNEQLAQVNELKKMTLQTGFEQGDRENVLCNKKEKRITNEQEETYSLSQSSGKFHQESKFDKGQNSLTCNKSKASRQTFVIHKLEKDNLLPNQKDKVTIYENLDVTNEFHTANLSTKDNGNLCDYGTHNILDLKKYVTDIQPSEQNESNINKLRKKVNRKTEIISGMNHMYEDNDKDVVHGLKKGNFFFKTQEDKEPISENIEVSKELQIPALSTRDNENQCDYRTQNVLGLQKQITNMYPVQQNESKVNKKLRQKVNRKTEIISEVNHLDNDKSIEYTVKSHSLFLTQKDKEIIPGNLEDPSEFETPALSTKDSGNLYDSEIQNVLGVKHGHDMQPACQNDSKIGKKPRLNVCQKSEIIPETNQIYENDNKGVHDLEKDNFFSLTPKDKETISENLQVTNEFQTVDLLIKDNGNLCDYDTQNILELKKYVTDRKSAEQNESKINKLRNKVNWKTEIISEMNQIYEDNDKDAHVQESYTKDLDFKVNKSKQKLECQDIINKHYMEVNSNEKESCDQILDSYKVVKKRKKESSCKAKNILTKAKNKLASQLTESSQTSISLESDLKHITSEADSDPGNPVELCKTQKQSTTTLNKKDLPFVEEIKEGECQVKKVNKMTSKSKKRKTSIDPSPESHEVMERILDSVQGKSTVSEQADKENNLENEKMVKNKPDFYTKAFRSLSEIHSPNIQDSSFDSVREGLVPLSVSSGKNVIIKENFALECSPAFQVSDDEHEKMNKMKFKVNRRTQKSGIGDRPLQDLSNTSFVSNNTAESENKSEDLSSERTSRRRRCTPFYFKEPSLRDKMRR [SGOL2]”, in that order: 0.191, -0.383, 0.746 and 2.18.
For “MEDPSEPDRLASADGGSPEEEEDGEREPLLPRIAWAHPRRGAPGSAVRLLDAAGEEGEAGDEELPLPPGDVGVSRSSSAELDRSRPAVSVTIGTSEMNAFLDDPEFADIMLRAEQAIEVGIFPERISQGSSGSYFVKDPKRKIIGVFKPKSEEPYGQLNPKWTKYVHKVCCPCCFGRGCLIPNQGYLSEAGAYLVDNKLHLSIVPKTKVVWLVSETFNYNAIDRAKSRGKKYALEKVPKVGRKFHRIGLPPKIGSFQLFVEGYKEAEYWLRKFEADPLPENIRKQFQSQFERLVILDYIIRNTDRGNDNWLVRYEKQKCEKEIDHKESKWIDDEEFLIKIAAIDNGLAFPFKHPDEWRAYPFHWAWLPQAKVPFSEEIRNLILPYISDMNFVQDLCEDLYELFKTDKGFDKATFESQMSVMRGQILNLTQALRDGKSPFQLVQIPCVIVERSQGGSQGRIVHLSNSFTQTVNCRKPFFSSW [PI4K2B]”, in that order: -0.206, 0.198, 0.385 and 0.874.
Consider “MEEGKMDENEWGYHGEGNKSLVVAHAQRCVVLRFLKFPPNRKKTSEEIFQHLQNIVDFGKNVMKEFLGENYVHYGEVVQLPLEFVKQLCLKIQSERPESRCDKDLDTLSGYAMCLPNLTRLQTYRFAEHRPILCVEIKPKCGFIPFSSDVTHEMKHKVCRYCMHQHLKVATGKWKQISKYCPLDLYSGNKQRMHFALKSLLQEAQNNLKIFKNGELIYGCKDARSPVADWSELAHHLKPFFFPSNGLASGPHCTRAVIRELVHVITRVLLSGSDKGRAGTLSPGLGPQGPRVCEASPFSRSLRCQGKNTPERSGLPKGCLLYKTLQVQMLDLLDIEGLYPLYNRVERYLEEFPEERKTLQIDGPYDEAFYQKLLDLSTEDDGTVAFALTKVQQYRVAMTAKDCSIMIALSPCLQDASSDQRPVVPSSRSRFAFSVSVLDLDLKPYESIPHQYKLDGKIVNYYSKTVRAKDNAVMSTRFKESEDCTLVLHKV [IPPK]”, for which the “solubility change mitosis (log2)” value in the data set with HeLa Kyoto [1] was -0.0236. For the same sequence, the “solubility in G1/S (log2)” value in the data set on HeLa Kyoto [2] was -0.275. Besides, the results for the thermal stability score in the data set with HeLa Kyoto [3] (setting [4]) and in the data set with HeLa Kyoto [3] (cell cycle stage: mitosis) were 0.519 and 1.21, respectively.
For “MEGQSSRGSRRPGTRAGLGSLPMPQGVAQTGAPSKVDSSFQLPAKKNAALGPSEPRLALAPVGPRAAMSASSEGPRLALASPRPILAPLCTPEGQKTATAHRSSSLAPTSVGQLVMSASAGPKPPPATTGSVLAPTSLGLVMPASAGPRSPPVTLGPNLAPTSRDQKQEPPASVGPKPTLAASGLSLALASEEQPPELPSTPSPVPSPVLSPTQEQALAPASTASGAASVGQTSARKRDAPAPRPLPASEGHLQPPAQTSGPTGSPPCIQTSPDPRLSPSFRARPEALHSSPEDPVLPRPPQTLPLDVGQGPSEPGTHSPGLLSPTFRPGAPSGQTVPPPLPKPPRSPSRSPSHSPNRSPCVPPAPDMALPRLGTQSTGPGRCLSPNLQAQEAPAPVTTSSSTSTLSSSPWSAQPTWKSDPGFRITVVTWNVGTAMPPDDVTSLLHLGGGDDSDGADMIAIGLQEVNSMLNKRLKDALFTDQWSELFMDALGPFNFVLVSSVRMQGVILLLFAKYYHLPFLRDVQTDCTRTGLGGYWGNKGGVSVRLAAFGHMLCFLNCHLPAHMDKAEQRKDNFQTILSLQQFQGPGAQGILDHDLVFWFGDLNFRIESYDLHFVKFAIDSDQLHQLWEKDQLNMAKNTWPILKGFQEGPLNFAPTFKFDVGTNKYDTSAKKRKPAWTDRILWKVKAPGGGPSPSGRKSHRLQVTQHSYRSHMEYTVSDHKPVAAQFLLQFAFRDDMPLVRLEVADEWVRPEQAVVRYRMETVFARSSWDWIGLYRVGFRHCKDYVAYVWAKHEDVDGNTYQVTFSEESLPKGHGDFILGYYSHNHSILIGITEPFQISLPSSELASSSTDSSGTSSEGEDDSTLELLAPKSRSPSPGKSKRHRSRSPGLARFPGLALRPSSRERRGASRSPSPQSRRLSRVAPDRSSNGSSRGSSEEGPSGLPGPWAFPPAVPRSLGLLPALRLETVDPGGGGSWGPDREALAPNSLSPSPQGHRGLEEGGLGP [INPP5J]”, in that order: -0.115, 0.0932, 0.193 and 0.518.
For “MESGGRPSLCQFILLGTTSVVTAALYSVYRQKARVSQELKGAKKVHLGEDLKSILSEAPGKCVPYAVIEGAVRSVKETLNSQFVENCKGVIQRLTLQEHKMVWNRTTHLWNDCSKIIHQRTNTVPFDLVPHEDGVDVAVRVLKPLDSVDLGLETVYEKFHPSIQSFTDVIGHYISGERPKGIQETEEMLKVGATLTGVGELVLDNNSVRLQPPKQGMQYYLSSQDFDSLLQRQESSVRLWKVLALVFGFATCATLFFILRKQYLQRQERLRLKQMQEEFQEHEAQLLSRAKPEDRESLKSACVVCLSSFKSCVFLECGHVCSCTECYRALPEPKKCPICRQAITRVIPLYNS [MUL1]”, in that order: -0.00588, 0.127, -0.138 and 0.791.
